In patent US20040116336A1, “Peptide derivatives” (priority 2002, published 2004):
pIC50: −log10 of the molar value.

Columns and labels:
[1] = target: APJ (orphan G protein-coupled receptor protein); assay: cell-based or functional assay
[2] = target: APJ (orphan G protein-coupled receptor protein); assay: radioligand competition, 125I-labelled compound of Ref. Ex. 1 (100 pM), CHO-A10 membrane fraction
[3] = target: APJ (orphan G protein-coupled receptor protein); assay: radioligand competition, compound of Ref. Ex. 2 as labelled ligand, CHO-A10 membrane fraction

Chain of APJ (orphan G protein-coupled receptor protein) (P35414 whole entry): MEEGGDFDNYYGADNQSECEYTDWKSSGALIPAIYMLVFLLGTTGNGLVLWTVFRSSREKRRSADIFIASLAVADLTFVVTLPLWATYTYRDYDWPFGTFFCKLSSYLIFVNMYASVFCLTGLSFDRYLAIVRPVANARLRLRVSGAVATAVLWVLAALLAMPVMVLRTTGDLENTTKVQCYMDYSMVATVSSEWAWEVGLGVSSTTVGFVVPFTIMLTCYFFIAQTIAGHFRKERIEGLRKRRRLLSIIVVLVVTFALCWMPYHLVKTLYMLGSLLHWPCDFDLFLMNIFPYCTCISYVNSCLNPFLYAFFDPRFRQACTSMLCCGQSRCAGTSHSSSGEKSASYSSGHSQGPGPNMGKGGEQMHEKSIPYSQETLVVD

With “Arg-Pro-Arg-Leu-Ser-Ala-Arg-Gly-N-MeAla-Met-Pro-Phe(Cl) (peptide)” the EC50, inhibition of forskolin-stimulated cAMP production (CHO-A10 clone 6 cells) [1] was 0.27 nM, the pIC50 [2] was 9.57 and the pIC50 [3] was 10.05.

“Arg-Arg-Gln-Arg-Pro-Arg-Leu-Ser-Ala-Arg-Gly-Pro-Met-Pro-Phe(Cl) (peptide)” gave a pIC50 [2] of 9.70 and a pIC50 [3] of 10.00.

With “pGlu-Arg-Pro-Arg-Leu-Ser-His-Lys-Gly-Pro-Met-Phe(Cl) (peptide)” the EC50, inhibition of forskolin-stimulated cAMP production (CHO-A10 clone 6 cells) [1] was 0.43 nM and the pIC50 [3] was 9.32.

“Arg-Pro-Arg-Leu-Ser-His-Lys-Gly-Pro-Met-Phe(Cl) (peptide)” was tested, and the EC50, inhibition of forskolin-stimulated cAMP production (CHO-A10 clone 6 cells) [1] was 0.16 nM and the pIC50 [3] was 9.77.

Work on “Arg-Pro-Arg-Leu-Phe-His-Lys-Gly-Pro-Met-Pro-Phe(Cl) (peptide)” yielded an EC50, inhibition of forskolin-stimulated cAMP production (CHO-A10 clone 6 cells) [1] of 0.38 nM, a pIC50 [2] of 8.10 and a pIC50 [3] of 10.18.

“Arg-Pro-Arg-Leu-Ser-His-Lys-Gly-Pro-Cha-Pro-Phe(Cl) (peptide)” showed an EC50, inhibition of forskolin-stimulated cAMP production (CHO-A10 clone 6 cells) [1] of 0.41 nM and a pIC50 [2] of 8.85.

With “pGlu-Arg-Pro-Arg-Leu-Ser-His-Lys-Gly-Pro-Met-Pro-Nal(2) (peptide)” the EC50, inhibition of forskolin-stimulated cAMP production (CHO-A10 clone 6 cells) [1] was 0.4 nM.

Substance “Arg-Pro-Arg-Leu-Ser-Ala-Arg-Gly-Pro-Ala-Pro-Phe(Cl) (peptide)” has an EC50, inhibition of forskolin-stimulated cAMP production (CHO-A10 clone 6 cells) [1] of 0.37 nM, a pIC50 [2] of 9.43 and a pIC50 [3] of 10.19.

In the case of “Arg-Pro-Arg-Leu-Ser-Ala-Arg-Gly-Pro-Met-Pro-Phe(Cl) (peptide)”, the EC50, inhibition of forskolin-stimulated cAMP production (CHO-A10 clone 6 cells) [1] was 0.32 nM, the pIC50 [2] was 9.04 and the pIC50 [3] was 10.44.

Work on “Arg-Pro-Arg-Leu-Ser-Dap(Ac)-Arg-Gly-Pro-Cha-Pro-Phe(Cl) (peptide)” yielded an EC50, inhibition of forskolin-stimulated cAMP production (CHO-A10 clone 6 cells) [1] of 0.69 nM, a pIC50 [2] of 9.16 and a pIC50 [3] of 9.96.

In the case of “Arg-Pro-Arg-Leu-Ser-Ala-Arg-Gly-Gly-Met-Pro-Phe(Cl) (peptide)”, the EC50, inhibition of forskolin-stimulated cAMP production (CHO-A10 clone 6 cells) [1] was 0.19 nM and the pIC50 [3] was 9.54.

With “Arg-Arg-Gln-Arg-Pro-Arg-Leu-Ser-Ala-Arg-Gly-Pro-Met-Pro-Phe(Cl)-NH2 (peptide)” the EC50, inhibition of forskolin-stimulated cAMP production (CHO-A10 clone 6 cells) [1] was 0.32 nM, the pIC50 [2] was 9.49 and the pIC50 [3] was 9.74.

“Arg-Pro-Arg-Leu-Ser-Dap-Arg-Gly-Pro-Cha-Pro-Phe(Cl) (peptide)” was tested, and the EC50, inhibition of forskolin-stimulated cAMP production (CHO-A10 clone 6 cells) [1] was 0.52 nM, the pIC50 [2] was 9.28 and the pIC50 [3] was 9.59.
